Read-outs that look alike come from different tables or passages of the source.

The chains are these.
B4: truncated RECQL5 protein (11–453) (domain or fragment, UniProt O94762 11-453, looked up)
chain: DPERRVRSTLKKVFGFDSFKTPLQESATMAVVKGNKDVFVCMPTGAGKSLCYQLPALLAKGITIVVSPLIALIQDQVDHLLTLKVRVSSLNSKLSAQERKELLADLEREKPQTKILYITPEMAASSSFQPTLNSLVSRHLLSYLVVDEAHCVSQWGHDFRPDYLRLGALRSRLGHAPCVALTATATPQVQEDVFAALHLKKPVAIFKTPCFRANLFYDVQFKELISDPYGNLKDFCLKALGQEADKGLSGCGIVYCRTREACEQLAIELSCRGVNAKAYHAGLKASERTLVQNDWMEEKVPVIVATISFGMGVDKANVRFVAHWNIAKSMAGYYQESGRAGRDGKPSWCRLYYSRNDRDQVSFLIRKEVAKLQEKRGNKASDKATIMAFDALVTFCEELGCRHAAIAKYFGDALPACAKGCDHCQNPTAVRRRLEALERSSSW
notes: also called RECQ5; DNA helicase RECQL5

The target of one experiment is hen egg white lysozyme (Gallus gallus, UniProt P00698).
Sequence of hen egg white lysozyme (P00698 19-147): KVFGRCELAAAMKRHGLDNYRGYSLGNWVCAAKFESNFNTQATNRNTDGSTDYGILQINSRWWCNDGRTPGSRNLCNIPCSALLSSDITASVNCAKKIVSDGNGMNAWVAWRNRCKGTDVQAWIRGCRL
Another experiment deals with T1, superfolder GFP (Aequorea victoria, engineered …, stabilised).
T1 construct: also called sfGFP
T1 sequence (P42212 other isoform, or with tags, fused parts or gaps, change not shown): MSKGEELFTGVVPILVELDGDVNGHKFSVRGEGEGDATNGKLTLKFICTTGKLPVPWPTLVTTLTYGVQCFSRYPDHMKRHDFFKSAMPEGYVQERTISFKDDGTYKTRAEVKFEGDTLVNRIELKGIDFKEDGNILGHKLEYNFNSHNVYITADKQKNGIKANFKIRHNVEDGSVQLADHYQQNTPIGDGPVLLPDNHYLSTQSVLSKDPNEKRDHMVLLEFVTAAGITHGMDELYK
The experiment can be described thus: BLI. As to conditions: both partners purified.

In experiment [1] the target is B4. The experiment can be described thus: BLI. As to conditions: both partners purified.
Experiment [2] addresses T2, anti-RECQL5 homoDiGb5-006.
T2 construct: also called homoDiGb Gb5-006
The experiment can be described thus: BLI. As to conditions: both partners purified.

Experiment [3] has as its target B4.
The target of experiment [4] is SARS-CoV-2 receptor-binding domain (RBD) (SARS-CoV-2, ancestral strain assumed, UniProt P0DTC2, glycans removed; complex for cryo-EM PEGylated with NHS-PEG4-azide).

B1: GbLysozyme (VHH)
VHH: DVQLVENGGGCVKAGGSLRLSCAASGSTDSIEYMTWFRQAPGKAREGVAALYTHTGNTYYTDSVKGRFTISQDKAKNMAYLRMDSVKSEDTAIYTCGATRKYVPVRFALDQSSYDYWGQGTQVMVSS
In the case of B1, in the experiment with hen egg white lysozyme, the binding result is listed as “binds”.

B2: anti-sfGFP monomeric GbEnhancer (VHH)
VHH: QVQLVENGGACVKPGGSLRLSCAASGFPVNRYSMRWYRQAPGKEREWVAGMSSAGDRSSYEDSVKGRFTISRDDARNTVYLQMNSLKPEDTAVYYCNVNVGFEYWGQGTQVMVS
notes: also called GbGFP; sfGFP Gb
The term Kd denotes the equilibrium constant for the complex coming apart. High values mean weaker binding, low ones tighter binding. B2: binding with superfolder GFP was characterised by a dissociation constant (Kd) of 5 nM.

B3: anti-RECQL5 wild-type nanobody (VHH)
VHH: QVQLVESGGGLVQAGGSLRLSCAASGSIFSINRMGWYRQAPGKQRELVAAITSGGSTNYADSVKGRFTISRDNAKNTVYLQMNSLKPEDTAIYYCEAYGTYTLAPTGEGEYDDYWGQGTQVTVS
notes: also called RECQL5 nanobody; anti-RECQL5 nanobody
B3 yielded a Kd in experiment [1] of 1200 nM.
B4 yielded a dissociation constant (Kd) in experiment [2] of 23400 nM.

B5: Nb5-006 (VHH)
VHH: VQLVENSGGGLVQAGGSLRLSCAASGSIFSINRMTWYRQAPGKEREWVAAITSGGSTNYADSVKGRFTISRDNAENTVYLQMNSLKPEDTAVYYCEAYGTYTLAPTGEGEYDDYWGQGTQVTVS
In turn, B5 gave a dissociation constant Kd in experiment [3] of 1200 nM.

B6: anti-RECQL5 monomeric Gb5-006 (VHH)
VHH: QVQLVENGGGCVKAGGSLRLSCAASGSIFSINRMTWYRQAPGKEREWVAAITSGGSTNYADSVKGRFTISRDNAENTVYLQMNSLKPEDTAVYYCEAYGTYTLAPTGEGEYDDYWGQGTQVMVS
notes: also called G5-006; Gb equivalent
In the case of B6, in experiment [1], the Kd was found to be 9000 nM.

B7: GbRBD1 (VHH)
VHH: QVQLVENGGGCVKAGGSLRLSCAVSGRTFSTAAMGWFRQAPGKEREFVAAIRWSGGSAYYADSVKGRFTISRDKAKNTVYLQMNSLKYEDTAVYYCAQTRVTRSLLSDYATWPYDYWGQGTQVMVS
Take B7: the binding result in experiment [4] was “binds”.

Values taken from paper PMC12435805 (Nature Chemical Biology, 2025).
